Like-named read-outs stand apart in the source and are kept apart here.
Columns and labels:
[1] = target: PfHsp70-1-PfHop association (Plasmodium falciparum, UniProt Q8IB24+Q8ILC1); experiment: ELISA for the direct association of PfHsp70-1 and PfHop; assay type: biochemical; details: for Effect on association of PfHsp70-1 and PfHop: 25 µM nucleotide or inhibitor
Procedure: An enzyme-linked immunosorbent assay (ELISA) was used to validate the effect of PES on the direct association of PfHsp70-1 and PfHop following a previously described protocol ([Mabate et al., 2018]). Briefly, ligand (5 μg/ml of PfHsp70-1) suspended in 5 mM sodium bicarbonate (NaHCO3) at pH 9.5 was noncovalently immobilized onto a 96 well plate overnight at 4 C. BSA (5 μg/ml) was used as a ligand for the negative control. The wells were washed with 150 µl TBST which contains (Tris-buffered saline- Tween (TBST; 20 mM Tris HCl, pH 7.5, 500 mM NaCl supplemented with 0.1% Tween 20) prior to blocking with 5% fat-free milk in TBST and incubated at 25 C for 1 h. The wells were washed using TBST for a total of 10 min. Varying concentrations (0–1,000 nM) of analyte PfHop were added to the wells and incubated for 2 h at 25 °C. To remove the unbound analyte, the plate was washed with 150 µl TBST three times before the addition of rabbit-raised α-PfHop antibody (1: 4,000) followed by incubation at 25°C for 1 h. Subsequently, the wells were washed with 150 µl TBST three times before the addition of 100 µl secondary HRP conjugated goat-raised α-rabbit antibody (1: 4,000) and incubated for 45 min at 25 °C. The substrate, 3,3’5,5’ –tetramethylbenzidine (TMB) (Bio Scientific, United States) was added into the wells and incubated for 2 min at 25 C. Color development was monitored by recording absorbance readings at 370 nm at 5 min time intervals for 30 min using a SpectraMax M3 Microplate reader (Molecular Devices, United States). To determine the effect of the inhibitor, the assay was conducted in the presence of 25 µM) of PES. […] Furthermore, the assay was repeated interchanging the ligand and analyte to validate data reproducibility. The generated data were analyzed taking into account the background signal generated by BSA which served as the control protein. The absorbance values obtained at the highest concentration of each analyte were averaged to represent maximum (100%) binding. Titration curves were then generated using GraphPad Prism 9.3.1 (GraphPad Software, United States). The relative binding affinities of PES under each experimental setting were normalized relative to the affinity estimated for assay conducted in the absence of nucleotide at the highest concentration of PfHop. Statistical analysis was conducted to establish significant differences at p < 0.05 using a student t-test.

PfHop = target: T1, PfHop (Plasmodium falciparum, UniProt Q8ILC1); experiment: SPR equilibrium binding to immobilized PfHop
T1 construct: His; made in house; host or cells: E. coli XL1 Blue
T1 sequence (Q8ILC1 1-564): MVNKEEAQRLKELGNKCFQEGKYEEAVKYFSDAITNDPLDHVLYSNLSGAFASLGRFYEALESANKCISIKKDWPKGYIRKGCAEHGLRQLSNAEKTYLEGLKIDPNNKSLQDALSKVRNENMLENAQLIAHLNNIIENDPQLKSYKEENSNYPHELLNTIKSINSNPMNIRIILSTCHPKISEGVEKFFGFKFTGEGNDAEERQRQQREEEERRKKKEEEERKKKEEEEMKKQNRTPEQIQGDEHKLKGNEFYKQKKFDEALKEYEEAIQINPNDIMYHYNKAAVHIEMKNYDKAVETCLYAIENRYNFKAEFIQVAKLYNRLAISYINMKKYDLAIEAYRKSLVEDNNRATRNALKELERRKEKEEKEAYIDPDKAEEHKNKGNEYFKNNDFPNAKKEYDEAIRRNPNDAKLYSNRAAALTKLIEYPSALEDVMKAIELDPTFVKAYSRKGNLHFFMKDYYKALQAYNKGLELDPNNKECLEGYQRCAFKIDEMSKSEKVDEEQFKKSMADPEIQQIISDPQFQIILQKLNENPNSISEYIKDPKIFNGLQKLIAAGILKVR
Procedure: The steady-state equilibrium binding kinetics for the inhibitors on either PfHsp70-1 or PfHop were investigated using BioNavis Navi 420A ILVES multi-parametric surface plasmon resonance (MP-SPR) system (BioNavis, Finland) following a previously described method ([Lebepe et al., 2020]; [Chakafana et al., 2021]). Briefly, filter-sterilized de-gassed PBS (4.3 mM Na2HPO4, 1.4 mM KH2PO4, 137 mM NaCl, 3 mM KCl, 0.005% (v/v) Tween 20, and 20 mM EDTA; pH 7.4) was used as running buffer for the assay. The ligand (0.1 μg/ml of PfHsp70-1/PfHop) was immobilized onto a carboxymethyl dextran (CMD 3-D) gold sensor chip through amine coupling. PES was injected (flow rate of 50 μl/min) as analyte at varying final concentrations (0, 1.25, 2.5, 5, 10, 20 nM). […] Steady-state equilibrium was achieved after allowing the interaction to occur for 8 min at 25°C, followed by dissociation for 4 min at 25°C, respectively. The data generated were analyzed using Data Viewer (BioNavis, Finland) after subtraction of baseline (signals generated on the chip surface without protein immobilized and buffer without inhibitor). The resultant sensorgrams were analyzed to determine the equilibrium binding affinities using Trace Drawer software version 1.8 (Ridgeview Instruments; Sweden).

[2] = tested on: Asexual P. falciparum strain 3D7 parasites; details: read-out: IC50 published potency, ref Smilkstein et al., 2004; cited from earlier work
[3] = tested on: Asexual P. falciparum strain 3D7 parasites; experiment: Parasite growth inhibition assay (SYBR Gold); assay type: cell-based; details: Plasmodium falciparum, 3D7, 96 h, read-out: IC50 parasite growth
Procedure: Parasite growth without any drug present, which allowed the parasites to proliferate unrestricted, was used as negative drug control. SYBRTM Gold DNA stain (Invitrogen, ThermoFisher Scientific Inc., Germany) was used to measure the proliferation of the parasites compared to the controls as previously described ([[…] al., 2004]). Fluorescence was measured using a TECAN Spark® multimode microplate reader (Tecan Trading AG, Switzerland) and the data were analyzed using SigmaPlot, version 12 (Systat Software Inc., IL, United States).

[4] = target: T2, Plasmodium falciparum Hsp70-1 (Plasmodium falciparum, UniProt Q8IB24 1-677); experiment: SPR; ligand and analyte switched: PfHop immobilised, PfHsp70-1 analyte; with ATP; bivalent fit model; details: both partners purified
T2 construct: Plasmodium falciparum Hsp70-1 (PF3D7_0818900), cytosolic Hsp70; also called PfHsp70-1; PF3D7_0818900

[5] = target: T2, Plasmodium falciparum Hsp70-1; experiment: SPR; PfHsp70-1 immobilised as ligand; PfHop analyte 0-2000 nM, 25 C, PBS; with 25 uM ATP; bivalent fit model; details: both partners purified
[6] = target: T2, Plasmodium falciparum Hsp70-1; experiment: SPR; ligand and analyte switched: PfHop immobilised, PfHsp70-1 analyte; with ADP; bivalent fit model; details: both partners purified
[7] = target: T2, Plasmodium falciparum Hsp70-1; experiment: SPR; ligand and analyte switched: PfHop immobilised, PfHsp70-1 analyte; no nucleotide or inhibitor (NN); bivalent fit model; details: both partners purified
[8] = target: T2, Plasmodium falciparum Hsp70-1; experiment: SPR; PfHsp70-1 immobilised as ligand; PfHop analyte 0-2000 nM, 25 C, PBS; with 25 uM ADP; bivalent fit model; details: both partners purified
[9] = target: T2, Plasmodium falciparum Hsp70-1; experiment: SPR; PfHsp70-1 immobilised as ligand; PfHop analyte 0-2000 nM, 25 C, PBS; with 25 uM PES; bivalent fit model; details: both partners purified
[10] = target: T2, Plasmodium falciparum Hsp70-1; experiment: SPR; ligand and analyte switched: PfHop immobilised, PfHsp70-1 analyte; with PES; bivalent fit model; details: both partners purified
[11] = target: T2, Plasmodium falciparum Hsp70-1; experiment: SPR; PfHsp70-1 immobilised as ligand; PfHop analyte 0-2000 nM, 20 ul/min, 25 C, PBS; no nucleotide or inhibitor (NN); bivalent fit model; details: both partners purified
[12] = target: T2, Plasmodium falciparum Hsp70-1; experiment: SPR; ligand and analyte switched: PfHop immobilised, PfHsp70-1 analyte; with EGCG; bivalent fit model; details: both partners purified
[13] = target: T2, Plasmodium falciparum Hsp70-1; experiment: SPR; PfHsp70-1 immobilised as ligand; PfHop analyte 0-2000 nM, 25 C, PBS; with 25 uM EGCG; bivalent fit model; details: both partners purified

**Q.** With `Nc1ncnc2c1ncn2[C@@H]1O[C@H](COP(=O)(O)OP(=O)(O)O)[C@@H](O)[C@H]1O` [ADP] as the molecule, how does the “Effect on association of PfHsp70-1 and PfHop” value [1] read?
**A.** promoted the association

**Q.** For `Nc1ncnc2c1ncn2[C@@H]1O[C@H](COP(=O)(O)OP(=O)(O)OP(=O)(O)O)[C@@H](O)[C@H]1O` [ATP], which Kd (PfHop) is on record?
**A.** 861 ± 10 nM

**Q.** What about the “Effect on association of PfHsp70-1 and PfHop” value [1] of the same molecule?
**A.** abrogated the association

**Q.** With `O=C(O[C@@H]1Cc2c(O)cc(O)cc2O[C@@H]1c1cc(O)c(O)c(O)c1)c1cc(O)c(O)c(O)c1` [EGCG, (−)-Epigallocatechin-3-gallate] as the molecule, how does the IC50 ([1]; ligand PfHop, analyte PfHsp70-1) read?
**A.** 14.6 ± 1.8 nM

**Q.** And the IC50 ([1]; ligand PfHsp70-1, analyte PfHop)?
**A.** 13.9 ± 1.2 nM

**Q.** What does the source list for `CCN(CC)CCCC(C)Nc1ccnc2cc(Cl)ccc12` (stereo not shown) [chloroquine]?
**A.** IC50 [2]: 21 ± 1.7 nM; IC50 [3]: 29.1 ± 1.3 nM

B1: Plasmodium falciparum Hsp90-Hsp70 organizing protein (natural protein, UniProt Q8ILC1 1-564, looked up)
chain: T1 sequence (Q8ILC1 1-564)
notes: Plasmodium falciparum Hsp90-Hsp70 organizing protein, PfHop (PF3D7_1434300); also called PfHop; PF3D7_1434300
**Q.** With B1 as the molecule, how does the Kd [4] read?
**A.** 80.9 nM

**Q.** And the koff [4]?
**A.** 0.0215 s⁻¹

**Q.** What about the kon [4] of the same molecule?
**A.** 266000 M⁻¹ s⁻¹

**Q.** What about the Kd [5] of the same molecule?
**A.** 79.8 nM

**Q.** And the koff [5]?
**A.** 0.0207 s⁻¹

**Q.** And the kon [5]?
**A.** 259000 M⁻¹ s⁻¹

**Q.** And the Kd [6]?
**A.** 3.1 nM

**Q.** And the koff [6]?
**A.** 0.025 s⁻¹

**Q.** What about the kon [6] of the same molecule?
**A.** 8.07e+06 M⁻¹ s⁻¹

**Q.** What about the Kd [7] of the same molecule?
**A.** 4.49 nM

**Q.** What about the koff [7] of the same molecule?
**A.** 0.0341 s⁻¹

**Q.** What about the kon [7] of the same molecule?
**A.** 7.6e+06 M⁻¹ s⁻¹

**Q.** What about the Kd [8] of the same molecule?
**A.** 3.08 nM

**Q.** And the koff [8]?
**A.** 0.00308 s⁻¹

**Q.** And the kon [8]?
**A.** 781000 M⁻¹ s⁻¹

**Q.** What about the Kd [9] of the same molecule?
**A.** 214 nM

**Q.** And the koff [9]?
**A.** 0.0266 s⁻¹

**Q.** And the kon [9]?
**A.** 125000 M⁻¹ s⁻¹

**Q.** What about the Kd [10] of the same molecule?
**A.** 232 nM

**Q.** What about the koff [10] of the same molecule?
**A.** 0.00811 s⁻¹

**Q.** What about the kon [10] of the same molecule?
**A.** 35000 M⁻¹ s⁻¹

**Q.** What about the Kd [11] of the same molecule?
**A.** 4.24 nM

**Q.** And the koff [11]?
**A.** 0.00325 s⁻¹

**Q.** And the kon [11]?
**A.** 767000 M⁻¹ s⁻¹

**Q.** What about the Kd [12] of the same molecule?
**A.** 1360 nM

**Q.** What about the koff [12] of the same molecule?
**A.** 0.00914 s⁻¹

**Q.** And the kon [12]?
**A.** 6710 M⁻¹ s⁻¹

**Q.** What about the Kd [13] of the same molecule?
**A.** 20700 nM

**Q.** What about the koff [13] of the same molecule?
**A.** 0.13 s⁻¹

**Q.** What about the kon [13] of the same molecule?
**A.** 6310 M⁻¹ s⁻¹

— article PMC9513230, “Inhibition of Plasmodium falciparum Hsp70-Hop partnership by 2-phenylthynesulfonamide” (Frontiers in Molecular Biosciences, 2022)
